This passage reports binding result and Kd results from article PMC5080433 (Nature Communications, 2016).

In test [1] the target is p97-A232E (human, UniProt P55072 2-806, A232E). The test can be described thus: SEC. The settings on record: both partners purified.
Test [2] has as its target T1, full-length p97 (residues 2–806), purified recombinant (human, UniProt P55072 2-806).
T1 construct: p97 (VCP), human, residues 2-806; Hexamer when alone; in complex with ASPL-C it stands in heterotetramers; also called p97 hexamers; wt p97; source: E. coli BL21 DE3 Rosetta2, purified (Ni-NTA, TEV protease, SEC)
The test can be described thus: BLI. The following applies: both partners purified.

B1: ASPL-C (residues 313–553), purified recombinant (domain or fragment)
chain: VDREPVDREPVVCHPDLEERLQAWPAELPDEFFELTVDDVRRRLAQLKSERKRLEEAPLVTKAFREAQIKEKLERYPKVALRVLFPDRYVLQGFFRPSETVGDLRDFVRSHLGNPELSFYLFITPPKTVLDDHTQTLFQANLFPAALVHLGAEEPAGVYLEPGLLEHAISPSAADVLVARYMSRAAGSPSPLPAPDPAPKSEPAAEEGALVPPEPIPGTAQPVKRSLGKVPKWLKLPASKR
For B1, the binding result in test [1] is “binds”.

B2: C-terminally His-tagged full-length ASPL (residues 1–553) (natural protein, human, UniProt Q9BZE9 1-553, looked up)
chain: MAAPAGGGGSAVSVLAPNGRRHTVKVTPSTVLLQVLEDTCRRQDFNPCEYDLKFQRSVLDLSLQWRFANLPNNAKLEMVPASRSREGPENMVRIALQLDDGSRLQDSFCSGQTLWELLSHFPQIRECLQHPGGATPVCVYTRDEVTGEAALRGTTLQSLGLTGGSATIRFVMKCYDPVGKTPGSLGSSASAGQAAASAPLPLESGELSRGDLSRPEDADTSGPCCEHTQEKQSTRAPAAAPFVPFSGGGQRLGGPPGPTRPLTSSSAKLPKSLSSPGGPSKPKKSKSGQDPQQEQEQERERDPQQEQERERPVDREPVDREPVVCHPDLEERLQAWPAELPDEFFELTVDDVRRRLAQLKSERKRLEEAPLVTKAFREAQIKEKLERYPKVALRVLFPDRYVLQGFFRPSETVGDLRDFVRSHLGNPELSFYLFITPPKTVLDDHTQTLFQANLFPAALVHLGAEEPAGVYLEPGLLEHAISPSAADVLVARYMSRAAGSPSPLPAPDPAPKSEPAAEEGALVPPEPIPGTAQPVKRSLGKVPKWLKLPASKR
notes: ASPL, human, residues 1-553; cDNA from the Mammalian Gene Collection; also called ASPL-His; source: E. coli BL21 DE3 Rosetta2, purified (glutathione-Sepharose, TEV cleavage, SEC); not shown: His, C-terminal, kept; GST, N-terminal, cleaved
In the case of B2, the dissociation constant (Kd) (in general, a measure of binding affinity in units of concentration) in test [2] was around 2 nM.
